Here are results for one molecule from patent publication US20170035878A1 (ALBANY MEDICAL COLLEGE, published 2017).

Assay [1] has as its target T1, human FcγRI (hFcγRI), coated on ELISA wells (human, UniProt P12314 16-288).
T1 construct: also called CD64
The assay is described as follows: ELISA, hFcγRI-coated wells, NSO supernatant, Rb anti-PspA or Rb anti-HSA detection. Background: In an ELISA, binding on a coated surface is turned into a signal by an enzyme label.

The target of assay [2] is T2, human FcγRI on hFcγRI-expressing U937 cells (human, UniProt P12314 16-374).
T2 construct: whole, on cells; also called hFcγRI on U937 cells
T2 sequence (P12314 16-374): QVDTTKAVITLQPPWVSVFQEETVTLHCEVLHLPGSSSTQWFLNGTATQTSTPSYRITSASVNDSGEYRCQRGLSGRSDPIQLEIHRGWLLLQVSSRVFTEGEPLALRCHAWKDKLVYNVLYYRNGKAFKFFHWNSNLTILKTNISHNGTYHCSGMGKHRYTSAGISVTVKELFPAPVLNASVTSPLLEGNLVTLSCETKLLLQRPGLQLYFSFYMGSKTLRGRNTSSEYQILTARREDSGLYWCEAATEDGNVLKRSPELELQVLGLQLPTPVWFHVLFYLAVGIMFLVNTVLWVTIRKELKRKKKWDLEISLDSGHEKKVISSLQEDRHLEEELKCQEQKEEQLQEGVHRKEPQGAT
The assay is described as follows: flow cytometry on U937 cells, NSO supernatant, in the presence of human IgG, Rb anti-PspA or Rb anti-HSA detection.

T1 sequence (P12314 16-288 limits assumed): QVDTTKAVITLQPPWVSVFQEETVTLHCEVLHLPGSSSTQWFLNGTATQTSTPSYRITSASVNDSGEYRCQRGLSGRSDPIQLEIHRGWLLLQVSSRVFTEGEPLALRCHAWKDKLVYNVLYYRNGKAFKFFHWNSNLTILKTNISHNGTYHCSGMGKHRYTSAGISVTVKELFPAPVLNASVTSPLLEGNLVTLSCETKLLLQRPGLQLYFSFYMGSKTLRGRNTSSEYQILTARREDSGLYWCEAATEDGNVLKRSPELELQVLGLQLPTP

B1: trivalent anti-hFcγRI-PspA fusion protein (other)
chain: DIQLTQSPSSLSASVGDRVTITCKSSQSVLYSSNQKNYLAWYQQKPGKAPKLLIYWASTRESGVPSRFSGSGSGTDFTFTISSLQPEDIATYYCHQYLSSWTFGQGTKVEIKSSGGGGSGGGGSGGGGSEVQLVESGGGVVQPGRSLRLSCSSSGFIFSDNYMYWVRQAPGKGLEWVATISDGGSYTYYPDSVKGRFTISRDNSKNTLFLQMDSLRPEDTGVYFCARGYYRYEGAMDYWGQGTPVTVSSGSTGGGGSTSAGGGGSSDIQLTQSPSSLSASVGDRVTITCKSSQSVLYSSNQKNYLAWYQQKPGKAPKLLIYWASTRESGVPSRFSGSGSGTDFTFTISSLQPEDIATYYCHQYLSSWTFGQGTKVEIKSSGGGGSGGGGSGGGGSEVQLVESGGGVVQPGRSLRLSCSSSGFIFSDNYMYWVRQAPGKGLEWVATISDGGSYTYYPDSVKGRFTISRDNSKNTLFLQMDSLRPEDTGVYFCARGYYRYEGAMDYWGQGTPVTVSSGSTGGGGSTASGGGGSSDIQLTQSPSSLSASVGDRVTITCKSSQSVLYSSNQKNYLAWYQQKPGKAPKLLIYWASTRESGVPSRFSGSGSGTDFTFTISSLQPEDIATYYCHQYLSSWTFGQGTKVEIKSSGGGGSGGGGSGGGGSEVQLVESGGGVVQPGRSLRLSCSSSGFIFSDNYMYWVRQAPGKGLEWVATISDGGSYTYYPDSVKGRFTISRDNSKNTLFLQMDSLRPEDTGVYFCARGYYRYEGAMDYWGQGTPVTVSSGSTGGGGSTEFMEESPVASQSKAEKDYDAAKKDAKNAKKAVEDAQKALDDAKAAQKKYDEDQKKTEEKAALEKAASEEMDKAVAAVQQAYLAYQQATDKAAKDAADKMIDEAKKREEEAKTKFNTVRAMVVPEPEQLAETKKKSEEAKQKAPELTKKLEEAKAKLEEAEKKATEAKQKVDAEEVAPQAKIAELENQVHRLEQELKEIDESESEDYAKEGFRAPLQSKLDAKKAKLSKLEELSDKIDELDAEIAKLEDQLKAAEENNNVEDYFKEGLEKTIAAKKAELEKTEADLKKAVNEPEKPAPAPETPAPELEHHHHHH
notes: Single-chain fusion: three humanized 22 (H22) anti-human FcγRI VL-VH scFv units, then PspA (S. pneumoniae strain Rx1) and a His tag; Tested as unpurified supernatant of transfected NSO cells; also called Trivalent Anti-FcγRI-PspA; Construct B
As to B1, the binding result in assay [1] and in assay [2] was “binds” each time.
